The target in data set [1] is proapoA-I-A154E.
Data set [2] addresses wild-type (WT) proapoA-I.
For data set [3], the target named is proapoA-I-A158E.
Data set [4] concerns the target proapoA-I-H155E.
Data set [5] addresses proapoA-I-D157K.
In data set [6] the target is proapoA-I-V156K.

This passage reports Apparent Vmax (LCAT activation by POPC-rHDL) results from patent US20050287636.

proapoA-I-A154E, sequence (chain, as listed by the source A154E): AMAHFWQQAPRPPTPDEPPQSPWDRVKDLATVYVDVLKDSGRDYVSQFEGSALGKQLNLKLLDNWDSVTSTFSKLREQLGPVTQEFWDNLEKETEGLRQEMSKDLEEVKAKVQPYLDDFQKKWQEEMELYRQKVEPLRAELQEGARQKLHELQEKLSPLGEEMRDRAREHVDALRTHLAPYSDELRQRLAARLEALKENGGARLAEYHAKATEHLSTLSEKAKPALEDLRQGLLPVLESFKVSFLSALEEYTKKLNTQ
proapoA-I-D157K, sequence (chain, as listed by the source D157K): as the sequence (chain, as listed by the source A154E) above, with E169A, D172K counted along it
proapoA-I-V156K, sequence (chain, as listed by the source V156K): as the sequence (chain, as listed by the source A154E) above, with E169A, V171K counted along it
wild-type (WT) proapoA-I, sequence (chain, as listed by the source): as the sequence (chain, as listed by the source A154E) above, with E169A counted along it
proapoA-I-A158E, sequence (chain, as listed by the source A158E): as the sequence (chain, as listed by the source A154E) above, with E169A, A173E counted along it
proapoA-I-H155E, sequence (chain, as listed by the source H155E): as the sequence (chain, as listed by the source A154E) above, with E169A, H170E counted along it

B1: LCAT (lecitin:cholesterol acyltransferase) (protein)
chain: FWLLNVLFPPHTTPKAELSNHTRPVILVPGCLGNQLEAKLDKPDVVNWMCYRKTEDFFTIWLDLNMFLPLGVDCWIDNTRVVYNRSSGLVSNAPGVQIRVPGFGKTYSVEYLDSSKLAGYLHTLVQNLVNNGYVRDETVRAAPYDWRLEPGQQEEYYRKLAGLVEEMHAAYGKPVFLIGHSLGCLHLLYFLLRQPQAWKDRFIDGFISLGAPWGGSIKPMLVLASGDNQGIPIMSSIKLKEEQRITTTSPWMFPSRMAWPEDHVFISTPSFNYTGRDFQRFFADLHFEEGWYMWLQSRDLLAGLPAPGVEVYCLYGVGLPTPRTYIYDHGFPYTDPVGVLYEDGDDTVATRSTELCGLWQGRQPQPVHLLPLHGIQHLNMVFSNLTLEHINAILLGAYRQGPPASPTASPEPPPPE
For the protein B1, the Apparent Vmax (LCAT activation by POPC-rHDL) in data set [1] is 3.5; in data set [2] it was 3.3; in data set [3] it was 0.5; in data set [4], 2.6; in data set [5], 1.8; in data set [6], 0.3.
